We go through three molecules from US20190233498A1 (H LUNDBECK A S, published 2019).

Changes are numbered by the printed parent chain. A value given as a limit tells only on which side of the number the result lay.

By Kd is commonly meant the free concentration of one partner at which half of the binding sites on the other are occupied at equilibrium, for simple one-to-one binding. Read a high Kd as a looser complex. As usually defined, the koff is a measure of how fast the partners let go of each other. A low value points to slow dissociation. A word on the kon: it is a measure of how fast the partners come together. For orientation: EC50 means the concentration needed to bring the measured effect to its halfway point. A word on the IC50: it is the concentration at which inhibition is half-maximal. Low readings indicate greater potency, high ones weaker potency.

For assay [1], the target named is T1, human PACAP38 (human, not fully specified; C-terminal lysine is amidated; N-terminal or C-terminal biotin in the HTRF and PC-12 cell binding assays).
T1 peptide: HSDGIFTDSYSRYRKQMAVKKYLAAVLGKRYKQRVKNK
Kind of assay: cell-based or functional assay.

In assay [2] the target is T1, human PACAP38. Nature of the assay: cell-based or functional assay.
In the next assay the target is T2, human VIP (human).
T2 construct: also called Vasoactive Intestinal Peptide
T2 peptide: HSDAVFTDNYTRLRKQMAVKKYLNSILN
Nature of the assay: SPR, Ab immobilised. The protocol: [The procedure below names another target; the source says it served here with some conditions changed.] (§1) Binding affinities of monoclonal antibodies for human PACAP were estimated using SPR on the PROTEON™ XPR36 (Bio-Rad, Hercules, Calif.). Antibody was immobilized to the surface of general amine coupling (“GLC” or “GLM”) Chips (Bio-Rad, Hercules, Calif.). A dilution series of human PACAP38 (SEQ ID NO: 1241) prepared in 1×PBST Buffer (4.3 mM Na Phosphate, 1.4 mM K Phosphate, 135 mM NaCl, 2.7 mM KCl 0.05% Polysorbate-20) purchased from Teknova (Cat# P1192, Teknova, Hollister, Calif.) and supplemented with 0.25 M arginine (from J.T. BAKER®), 0.2 mg/ml BSA (Jackson Immuno Research Labs, West Grove, Pa.), and 0.005% sodium azide (VWR International, Radnor, Pa.) with the pH adjusted to 7 was used to query the antibodies. Antigen (ranging from 1.23 nM to 100 nM) was typically run sequentially with association times of 2-4 minutes and dissociation times of 3-120 minutes grouped with the PROTEON™ Manager Software (v3.1.0.6 (Bio-Rad, Hercules, Calif.)) and fitted using a 1:1 Langmuir binding model. Surfaces were regenerated between analyte queries using 0.85% Phosphoric Acid.
Background: SPR reads the build-up and loss of mass on a sensor chip optically.

The target in assay [3] is T1, human PACAP38. Nature of the assay: SPR, Ab immobilised. The method, then: as §1
For assay [4], the target named is T3, human PACAP27 (human, C-terminal leucine is amidated; 125I-labelled in Example 10).
T3 peptide: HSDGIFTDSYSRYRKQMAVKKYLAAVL
Kind of assay: SPR, Ab immobilised. The protocol: [The procedure below names another target; the source says it served here with some conditions changed.] as §1

Assay [5] addresses T1, human PACAP38. Kind of assay: HTRF binding, biotin-PACAP38. The method, then:
In parallel, 10 μl of an antibody dilution series (highest final concentration of 100 nM) were incubated with 10 μl of N-terminal or C-terminal biotinylated PACAP38 (35 nM final) alone, or in combination with either PACAP27 (350 nM final) or VIP (350 nM final), i.e., 10× PACAP27 or 10×VIP, respectively, in a HTRF plate. 20 μl of Eu³⁺ cryptate labeled anti-hu Fc donor and 20 μl of d2-labeled streptavidin acceptor were added to each well and incubated for 1 hour at room temperature. Fluorescence was measured at 620 and 665 nm with a delay of 300 μsec.
EC₅₀ values, i.e. the concentration of an antibody that yields a response halfway between the baseline and the maximum value within a specified time period, were computed for each antibody based upon their binding curves and are shown in Table 1 below. […] A humanized form of antibody Ab1 was produced and is identified by an appended “.H”, i.e., Ab1.H, and it also bound PACAP38 with high affinity.
Background: TR-FRET usually uses a lanthanide donor and a delayed reading to cut background.

The target of assay [6] is T1, human PACAP38. Kind of assay: inhibition of 100 nM biotin-PACAP38 binding to PC-12 cells, TRF. The method, then: To identify antibodies that block PACAP38 binding to PAC1-R-expressing cells, adherent PC-12 cells (ATCC, Manassas, Va.) expressing PAC1-R were used in a Europium-based PAC1-R expressing cells binding assay.
Antibody solutions were incubated with N-terminal biotinylated PACAP38 at 10× the final concentration (100 nM or 30 nM) for 1 hr, then added to PC-12 cells that were plated 24 hrs. prior in black clear bottom 96 well plates (COSTAR™, Corning Incorporated, Corning, N.Y.) and further incubated for 1 hr at room temperature. After three washes, the cells were incubated with 20 μl Europium-labeled streptavidin (PerkinElmer, Waltham, Mass.) for 1 hr at room temperature. Cells were washed three times, then 20 μl DELFIA® Enhancement solution (PerkinElmer, Waltham, Mass.) was added to each well and incubated for 15 minutes with gentle shaking. Plates were read (Time Resolved Fluorescence (“TRF”)) on SPECTRAMAX® (Molecular Devices, Sunnyvale, Calif.) plate reader.
FIGS. 14A-14BB are representative of the inhibition curves obtained by this method (results are shown for Ab1, Ab2, Ab3, Ab4, Ab5, Ab6, Ab7, Ab8, Ab9, Ab10, Ab11, Ab12, Ab13, Ab14, Ab15, Ab16, Ab17, Ab18, Ab19, Ab1.H, Ab10.H, Ab22, Ab23, Ab3.H, Ab4.H, Ab5.H, Ab9.H, and Ab12.H, respectively) wherein the PAC1-R expressing cells were PC-12 cells.

For assay [7], the target named is T1, human PACAP38. Nature of the assay: cell-based or functional assay.
Assay [8] concerns the target T3, human PACAP27. Kind of assay: cell-based or functional assay.

B1: anti-PACAP antibody Ab14 (antibody, human IgG1, kappa, N297A, V domains shown)
VH: QSVEASGGRLVTPGTPLTLTCTVSGFSLSSAAMNWVRQAPGKGLEWIGFIEYSKNIVYASWAKGRFTISKVSSTTVDLKMTSPTTEDTATYFCARGGGEFFIWGQGTLVTVSS
VL: AQVLTQTPSSVSAAVGGTVTINCQSSQSVYSNNRLSYYQQKPGQPPKLLIYEASSLAYGVPSRFKGSGSGTQFTLTISDLECDDAATYYCAGAYSNSIYSFGGGTEVVVKR
notes: full-length rabbit/human chimeric antibody
B1: in the assay with human PACAP38 [1], the “IC50, 5 nM PACAP38-induced human VPAC1-R mediated cAMP increase” value amounted to 2630 pM. The “IC50, 1 nM PACAP38-induced human VPAC2-R mediated cAMP increase” value with human PACAP38 [2] was found to be 840 pM. In the assay with human VIP, this molecule registered a Kd of 250 nM, an off-rate (koff) of 0.067 s⁻¹ and a kon of 270000 M⁻¹ s⁻¹. In addition, in the assay with human PACAP38 [3], the dissociation constant Kd was at most 0.031 nM, the koff is at most 1e-05 s⁻¹ and the kon was determined as 320000 M⁻¹ s⁻¹. For the same molecule, in the assay with human PACAP27 [4], the affinity, expressed as Kd, was 0.074 nM; the koff amounted to 2e-05 s⁻¹; the kon was 270000 M⁻¹ s⁻¹. Besides, the concentration for a half-maximal effect (EC50) in the assay with human PACAP38 [5] is 0.57 nM. The same molecule had an IC50 with human PACAP38 [6] of 17.9 nM. The “IC50, 0.1 nM PACAP38-induced PAC1-R mediated cAMP increase” value with human PACAP38 [7] stood at 154 pM. The “IC50, 0.1 nM PACAP27-induced PAC1-R mediated cAMP increase” value with human PACAP27 [8] turned out to be 95.7 pM.

B2: anti-PACAP antibody Ab15 (antibody, human IgG1, kappa, N297A, V domains shown)
VH: QSVEASGGHLVTPGTPLTLTCTVSGFSLSSAAMNWVRQAPGKGLEWIGSVDERQNKYYASWAKGRFTISRTSSTTVNLKMTSPTTEDTATYFCARGGGEFFIWGQGTLVTVSS
VL: B1 VL with Y37W, K47N, Y58S, K65S, S95N, N96T, S97G, S100G
notes: as for B1
In the case of B2, the “IC50, 5 nM PACAP38-induced human VPAC1-R mediated cAMP increase” value with human PACAP38 [1] was 3720 pM. In addition, the “IC50, 1 nM PACAP38-induced human VPAC2-R mediated cAMP increase” value in the assay with human PACAP38 [2] is 22800 pM. In the assay with human VIP, binding was characterised by a dissociation constant (Kd) of 820 nM, the off-rate (koff) is 0.13 s⁻¹ and the kon was determined as 160000 M⁻¹ s⁻¹. Moreover, in the assay with human PACAP38 [3], the Kd amounted to 0.05 nM, the koff was 2.7e-05 s⁻¹ and the kon amounted to 530000 M⁻¹ s⁻¹. In the assay with human PACAP27 [4], the Kd was found to be 0.17 nM, the koff stood at 7.8e-05 s⁻¹ and the kon was found to be 470000 M⁻¹ s⁻¹. For the same molecule, the 50% effective concentration (EC50) in the assay with human PACAP38 [5] is 0.62 nM. Moreover, in the assay with human PACAP38 [6], the half-maximal inhibitory concentration (IC50) turned out to be 36.7 nM. In addition, the “IC50, 0.1 nM PACAP38-induced PAC1-R mediated cAMP increase” value in the assay with human PACAP38 [7] turned out to be 162 pM. Moreover, the “IC50, 0.1 nM PACAP27-induced PAC1-R mediated cAMP increase” value with human PACAP27 [8] came out at 156 pM.

B3: anti-PACAP antibody Ab19 (antibody, human IgG1, kappa, N297A, V domains shown)
VH: QSVEASGGRLVTPGTPLTLTCTVSGFSLSSATMNWVRQAPGKGLEWIGLIGGNDERYYASWAKGRFTISKTSSTTVDLKMTSPTTEDTATYFCARGGGEFFIWGPGTLVTVSS
VL: AQVLTQTPSSVSAAVGGTVTINCQSSESVYTNDRLSWYQQKPGQPPKLLIYEASKLASGVPPRFSGSGSGTQFTLTISDLECDDAATYYCAGAYSTSIHGFGGGTEVVVKR
notes: as for B1
On to B3, for which, in the assay with human PACAP38 [1], the “IC50, 5 nM PACAP38-induced human VPAC1-R mediated cAMP increase” value was determined as 827 pM. Moreover, the “IC50, 1 nM PACAP38-induced human VPAC2-R mediated cAMP increase” value in the assay with human PACAP38 [2] came to 954 pM. Besides, the Kd turned out to be 1000 nM with human VIP, 0.093 nM with human PACAP38 [3] and 0.31 nM in the assay with human PACAP27 [4]. Moreover, the koff was 0.28 s⁻¹ in the assay with human VIP, 2.5e-05 s⁻¹ with human PACAP38 [3] and 0.00013 s⁻¹ in the assay with human PACAP27 [4]. Further, the association rate constant (kon) came out at 280000 M⁻¹ s⁻¹ with human VIP, 270000 M⁻¹ s⁻¹ with human PACAP38 [3] and 420000 M⁻¹ s⁻¹ with human PACAP27 [4]. Moreover, in the assay with human PACAP38 [5], the EC50 turned out to be 0.43 nM. The same molecule gave an IC50 with human PACAP38 [6] of 162 nM. Further, the “IC50, 0.1 nM PACAP38-induced PAC1-R mediated cAMP increase” value in the assay with human PACAP38 [7] amounted to 101 pM. For the same molecule, the “IC50, 0.1 nM PACAP27-induced PAC1-R mediated cAMP increase” value in the assay with human PACAP27 [8] turned out to be 87.4 pM.
